The record followed here is paper PMC11686378, “Communication between DNA polymerases and Replication Protein A within the archaeal replisome” (Nature Communications, 2024).

B2: DNA primase PriSL (PriS-PriL heterodimer) from P. abyssi, in solution (complex, Pyrococcus abyssi)
chain 1: MLLREVTKEERKEFYSNEWNAKQIPDFILQNLDKREFGFDHTGEGPSDRKNSYTDVRDLEDYIKATAPYAVYSSVAFYEKPQEMEGWLGAELVFDIDAKDLPLRRCNHEPGKVCPICLNDAKEIARDTLIVLKEELGFEDVHVVYSGRGYHIRVMDGWALSLDSKSRERILSFISASEIEDHSEFRKMLLERRGWFVLNHGYPRVFRLRFGYFILRVKVEHLINFGIRKNIAKRILDNKETIYEEFVRKGILAAFPDGVGIESLAKLFALSTRFSKAYFDGRVTVDLKRILRLPSTLHSKVGLIAKYIGNNERDVMRFNPFKHAVPKFRRKEVKEEYKRFLEENF
chain 2: MLDPFSEKAKELLKEFGSINDFLNSIPRIVDVEEVIERVKIASDRKLLEGFVDIEDIKDLAQFYALLGALSYSPYGLELELVKKANILLYSERIRREKEIRPEEISLRINKAIEFPIDDLKKIERVFGKLPEYTIHLAEFLDLIPGERLSEYYIYNGNVYLRKEDLIKVWMKAFERNIEKSVNMLYEIRDELPGFFREVLGGIKEVAEQEFGKSGEVKAGTLRPDLFPPCVKNALKGVPQGLRNYAITVLLTSFLSYARICPNPPRRNVRVKDCIDDIRIITDEILPLIIEAANRCSPPLFEDQPNEIKNIWYHLGFGYTANPKLEDSGNSTWYFPPNCDKIRANAPQLCTPDKHCKYVRNPLTYYLRRLYLEGRKNASKGGNERGEKRVLQQ
notes: PriS, catalytic small subunit of the DNA primase, Pyrococcus abyssi; PriL, large subunit of the DNA primase, Pyrococcus abyssi, with its C-terminal 4Fe-4S domain; Analyte in BLI on His-Rpa2^WH and on RPA-ssDNA filaments; also called full-length PriSL; source: E. coli BL21 Star (DE3), polycistronic PriS-PriL, purified (heat 60 °C, HisTrap, heparin, SEC)

Settings in all cases: both partners purified
Assay [1] concerns the target B2. As to the kind of experiment: BLI; histidine-tagged Rpa2^WH captured on Ni-NTA sensors; PriSL (7.81-500 nM) or PolD (15.62-1000 nM) in solution; steady-state analysis; 25 °C, buffer E with 0.2 mg/ml BSA.
The target of assay [2] is T1, Replicative DNA polymerase PolD (DP1-DP2 heterodimer) from P. abyssi, in solution (Pyrococcus abyssi).
T1 construct: DP1, proofreading small subunit of DNA polymerase D, Pyrococcus abyssi; DP2, polymerization large subunit of DNA polymerase D, Pyrococcus abyssi; also called unlabeled PolD; source: E. coli BL21 Star (DE3), purified (heat 60 °C, HisTrap, heparin, SEC)
Described as above.

In assay [3] the target is T2, RPA^ΔWH (Rpa1/Rpa2(1-179)/Rpa3), RPA lacking the winged-helix domain of Rpa2 (Pyrococcus abyssi).
T2 chain 1: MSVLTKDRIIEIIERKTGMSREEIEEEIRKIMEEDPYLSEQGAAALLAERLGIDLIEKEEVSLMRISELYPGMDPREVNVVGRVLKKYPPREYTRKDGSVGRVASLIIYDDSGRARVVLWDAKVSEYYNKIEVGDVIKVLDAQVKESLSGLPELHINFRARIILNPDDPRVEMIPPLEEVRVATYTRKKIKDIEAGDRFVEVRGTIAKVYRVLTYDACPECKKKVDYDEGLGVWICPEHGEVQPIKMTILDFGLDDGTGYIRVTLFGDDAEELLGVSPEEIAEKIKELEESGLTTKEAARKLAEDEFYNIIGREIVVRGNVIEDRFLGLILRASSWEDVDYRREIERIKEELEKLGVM
T2 chain 2: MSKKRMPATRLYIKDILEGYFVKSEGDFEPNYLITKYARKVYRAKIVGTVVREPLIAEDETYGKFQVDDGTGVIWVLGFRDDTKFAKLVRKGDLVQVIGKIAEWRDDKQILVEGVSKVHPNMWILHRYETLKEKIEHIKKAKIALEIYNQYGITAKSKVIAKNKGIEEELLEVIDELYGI
T2 chain 3: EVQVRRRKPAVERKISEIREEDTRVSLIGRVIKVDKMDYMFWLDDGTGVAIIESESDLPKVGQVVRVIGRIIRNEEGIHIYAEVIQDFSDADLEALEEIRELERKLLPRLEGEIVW
Kind of assay: BLI; RPA or RPA^ΔWH nucleoprotein filaments on a 3'-TEG-biotin 50-nt ssDNA held on streptavidin sensors; PriSL (1.56-100 nM) or PolD (15.62-1000 nM) in solution; steady-state analysis; 25 °C, buffer E with 0.2 mg/ml BSA.

B1: Histidine-tagged Rpa2^WH (Rpa2 residues 178-268), C-terminal winged-helix domain of P. abyssi Rpa2 (domain or fragment)
chain: MGKHHHHSGHHHTGHHHHSGSHHHTSSSASTGENLYFQGTGGIMMEERSIEEPMEELLEEEIPEEKEENELLEKAKEDILNILRQKRTAISRKYILKKLGDKYDEETIDDAITELLAQGEIYEPETGYYKLL
With B1, the Kd in assay [1] is 25 ± 9 nM; in assay [2], 98 ± 49 nM.

With B2, in assay [3], the “fold weaker interaction than with wild-type RPA filaments (at 12.5 nM PriSL)” value was 7 fold.
